experiment: melting temperature; melt of duplexes; conditions: sodium 0.0675 M; strand 1 µM

Substance	Tm
CGACGTGCACCATGTGCTG+CAGCACATGCGGCACGTCG ((((((((..(((((((((+)))))))))..))))))))	50.4 °C
CGACGTGCACCATGTGCTG+CAGCACATGCTGCACGTCG (((((((((.(((((((((+))))))))).)))))))))	51.6 °C
CGACGTGCACCATGTGCTG+CAGCACATGGCGCACGTCG ((((((((.((((((((((+)))))))))).))))))))	59.2 °C
CGACGTGCACCATGTGCTG+CAGCACATGGGGCACGTCG ((((((((.((((((((((+)))))))))).))))))))	62.8 °C
CGACGTGCACCATGTGCTG+CAGCACATGGTGCACGTCG (((((((((((((((((((+)))))))))))))))))))	65.2 °C
CGACGTGCACCATGTGCTG+CAGCACATGTAGCACGTCG ((((((((..(((((((((+)))))))))..))))))))	50.9 °C
CGACGTGCACCATGTGCTG+CAGCACATGTGGCACGTCG ((((((((..(((((((((+)))))))))..))))))))	53.4 °C
CGACGTGCACCATGTGCTG+CAGCACATGTTGCACGTCG (((((((((.(((((((((+))))))))).)))))))))	55 °C
CGACGTGCACCATGTGCTG+CAGCACATTAAGCACGTCG ((((((((...((((((((+))))))))...))))))))	43.9 °C
CGACGTGCACCATGTGCTG+CAGCACATTACGCACGTCG ((((((((...((((((((+))))))))...))))))))	42.4 °C
CGACGTGCACCATGTGCTG+CAGCACATTCAGCACGTCG ((((((((...((((((((+))))))))...))))))))	42.6 °C
CGACGTGCACCATGTGCTG+CAGCACATTGGGCACGTCG ((((((((.(.((((((((+)))))))).).))))))))	52.5 °C
CGACGTGCACCATGTGCTG+CAGCACATTTGGCACGTCG ((((((((...((((((((+))))))))...))))))))	44.6 °C
CGACGTGCACGATGTGCTG+CAGCACATACCGCACGTCG ((((((((...((((((((+))))))))...))))))))	43.6 °C
CGACGTGCACGATGTGCTG+CAGCACATACGGCACGTCG ((((((((...((((((((+))))))))...))))))))	48.2 °C
CGACGTGCACGATGTGCTG+CAGCACATAGCGCACGTCG ((((((((.(.((((((((+)))))))).).))))))))	50.3 °C
CGACGTGCACGATGTGCTG+CAGCACATATCGCACGTCG ((((((((...((((((((+))))))))...))))))))	44.2 °C
CGACGTGCACGATGTGCTG+CAGCACATCATGCACGTCG (((((((((.(((((((((+))))))))).)))))))))	55.3 °C
CGACGTGCACGATGTGCTG+CAGCACATCCCGCACGTCG ((((((((..(((((((((+)))))))))..))))))))	49.9 °C
CGACGTGCACGATGTGCTG+CAGCACATCTTGCACGTCG (((((((((.(((((((((+))))))))).)))))))))	55.7 °C
CGACGTGCACGATGTGCTG+CAGCACATGAGGCACGTCG ((((((((...((((((((+))))))))...))))))))	48.4 °C
CGACGTGCACGATGTGCTG+CAGCACATGCCGCACGTCG ((((((((...((((((((+))))))))...))))))))	44.4 °C
CGACGTGCACGATGTGCTG+CAGCACATGGAGCACGTCG ((((((((.(.((((((((+)))))))).).))))))))	50.5 °C
CGACGTGCACGATGTGCTG+CAGCACATGGGGCACGTCG ((((((((.(.((((((((+)))))))).).))))))))	54.9 °C

Substance	Tm
CGACGTGCACGATGTGCTG+CAGCACATTACGCACGTCG ((((((((...((((((((+))))))))...))))))))	46 °C
CGACGTGCACGATGTGCTG+CAGCACATTCCGCACGTCG ((((((((...((((((((+))))))))...))))))))	44.5 °C
CGACGTGCACGATGTGCTG+CAGCACATTCTGCACGTCG (((((((((..((((((((+))))))))..)))))))))	49.2 °C
CGACGTGCACTATGTGCTG+CAGCACATAACGCACGTCG ((((((((..(((((((((+)))))))))..))))))))	46.2 °C
CGACGTGCACTATGTGCTG+CAGCACATAATGCACGTCG (((((((((.(((((((((+))))))))).)))))))))	51.2 °C
CGACGTGCACTATGTGCTG+CAGCACATAGCGCACGTCG ((((((((.((((((((((+)))))))))).))))))))	54.8 °C
CGACGTGCACTATGTGCTG+CAGCACATCCCGCACGTCG ((((((((...((((((((+))))))))...))))))))	42.6 °C
CGACGTGCACTATGTGCTG+CAGCACATCGGGCACGTCG ((((((((.(.((((((((+)))))))).).))))))))	51.1 °C
CGACGTGCACTATGTGCTG+CAGCACATCTAGCACGTCG ((((((((...((((((((+))))))))...))))))))	42.4 °C
CGACGTGCACTATGTGCTG+CAGCACATCTGGCACGTCG ((((((((...((((((((+))))))))...))))))))	44.2 °C
CGACGTGCACTATGTGCTG+CAGCACATCTTGCACGTCG (((((((((..((((((((+))))))))..)))))))))	46.5 °C
CGACGTGCACTATGTGCTG+CAGCACATGAGGCACGTCG ((((((((...((((((((+))))))))...))))))))	47.5 °C
CGACGTGCACTATGTGCTG+CAGCACATGATGCACGTCG (((((((((..((((((((+))))))))..)))))))))	48.8 °C
CGACGTGCACTATGTGCTG+CAGCACATGGCGCACGTCG ((((((((.(.((((((((+)))))))).).))))))))	50.3 °C
CGACGTGCACTATGTGCTG+CAGCACATGGTGCACGTCG ((((((((((.((((((((+)))))))).))))))))))	56.6 °C
CGACGTGCACTATGTGCTG+CAGCACATGTCGCACGTCG ((((((((...((((((((+))))))))...))))))))	46.4 °C
CGACGTGCACTATGTGCTG+CAGCACATGTTGCACGTCG (((((((((..((((((((+))))))))..)))))))))	48.9 °C
CGACGTGCACTATGTGCTG+CAGCACATTAAGCACGTCG ((((((((...((((((((+))))))))...))))))))	44.3 °C
CGACGTGCACTATGTGCTG+CAGCACATTCAGCACGTCG ((((((((...((((((((+))))))))...))))))))	43.4 °C
CGACGTGCACTATGTGCTG+CAGCACATTCCGCACGTCG ((((((((...((((((((+))))))))...))))))))	42.2 °C
CGACGTGCACTATGTGCTG+CAGCACATTGGGCACGTCG ((((((((.(.((((((((+)))))))).).))))))))	53.3 °C
CGACGTGCACTATGTGCTG+CAGCACATTTAGCACGTCG ((((((((...((((((((+))))))))...))))))))	42.7 °C
CGACGTGCACTATGTGCTG+CAGCACATTTGGCACGTCG ((((((((...((((((((+))))))))...))))))))	45.3 °C
CGACGTGCAGAATGTGCTG+CAGCACATAAGGCACGTCG ((((((((...((((((((+))))))))...))))))))	51 °C

Substance	Tm
CGACGTGCAGAATGTGCTG+CAGCACATAATGCACGTCG (((((((((..((((((((+))))))))..)))))))))	54.2 °C
CGACGTGCAGAATGTGCTG+CAGCACATACAGCACGTCG ((((((((.(.((((((((+)))))))).).))))))))	52 °C
CGACGTGCAGAATGTGCTG+CAGCACATACTGCACGTCG ((((((((((.((((((((+)))))))).))))))))))	57.8 °C
CGACGTGCAGAATGTGCTG+CAGCACATAGGGCACGTCG ((((((((...((((((((+))))))))...))))))))	49.2 °C
CGACGTGCAGAATGTGCTG+CAGCACATATTGCACGTCG (((((((((..((((((((+))))))))..)))))))))	50.5 °C
CGACGTGCAGAATGTGCTG+CAGCACATCACGCACGTCG ((((((((...((((((((+))))))))...))))))))	50.1 °C
CGACGTGCAGAATGTGCTG+CAGCACATCCAGCACGTCG ((((((((.(.((((((((+)))))))).).))))))))	51.6 °C
CGACGTGCAGAATGTGCTG+CAGCACATCGAGCACGTCG ((((((((...((((((((+))))))))...))))))))	50.3 °C
CGACGTGCAGAATGTGCTG+CAGCACATGACGCACGTCG ((((((((...((((((((+))))))))...))))))))	53.1 °C
CGACGTGCAGAATGTGCTG+CAGCACATGATGCACGTCG (((((((((..((((((((+))))))))..)))))))))	57.9 °C
CGACGTGCAGAATGTGCTG+CAGCACATGCAGCACGTCG ((((((((.(.((((((((+)))))))).).))))))))	54.6 °C
CGACGTGCAGAATGTGCTG+CAGCACATGCCGCACGTCG ((((((((.(.((((((((+)))))))).).))))))))	54.6 °C
CGACGTGCAGAATGTGCTG+CAGCACATGCGGCACGTCG ((((((((.(.((((((((+)))))))).).))))))))	54.4 °C
CGACGTGCAGAATGTGCTG+CAGCACATGCTGCACGTCG ((((((((((.((((((((+)))))))).))))))))))	58.6 °C
CGACGTGCAGAATGTGCTG+CAGCACATGGAGCACGTCG ((((((((...((((((((+))))))))...))))))))	55.6 °C
CGACGTGCAGAATGTGCTG+CAGCACATGGTGCACGTCG (((((((((..((((((((+))))))))..)))))))))	52.6 °C
CGACGTGCAGAATGTGCTG+CAGCACATTAGGCACGTCG ((((((((..(((((((((+)))))))))..))))))))	54.1 °C
CGACGTGCAGAATGTGCTG+CAGCACATTCGGCACGTCG ((((((((.((((((((((+)))))))))).))))))))	59.9 °C
CGACGTGCAGAATGTGCTG+CAGCACATTGCGCACGTCG ((((((((..(((((((((+)))))))))..))))))))	52.1 °C
CGACGTGCAGAATGTGCTG+CAGCACATTGTGCACGTCG (((((((((.(((((((((+))))))))).)))))))))	55.8 °C
CGACGTGCAGCATGTGCTG+CAGCACATACAGCACGTCG ((((((((.(.((((((((+)))))))).).))))))))	48.3 °C
CGACGTGCAGCATGTGCTG+CAGCACATACGGCACGTCG ((((((((.(.((((((((+)))))))).).))))))))	49.3 °C
CGACGTGCAGCATGTGCTG+CAGCACATATGGCACGTCG ((((((((...((((((((+))))))))...))))))))	46.7 °C
CGACGTGCAGCATGTGCTG+CAGCACATCATGCACGTCG (((((((((..((((((((+))))))))..)))))))))	49.5 °C

From the array DNA melting data of Ke et al.
